In test [1] the target is T1, human calcitonin receptor (human, UniProt P30988 25-474).
T1 sequence (looked up): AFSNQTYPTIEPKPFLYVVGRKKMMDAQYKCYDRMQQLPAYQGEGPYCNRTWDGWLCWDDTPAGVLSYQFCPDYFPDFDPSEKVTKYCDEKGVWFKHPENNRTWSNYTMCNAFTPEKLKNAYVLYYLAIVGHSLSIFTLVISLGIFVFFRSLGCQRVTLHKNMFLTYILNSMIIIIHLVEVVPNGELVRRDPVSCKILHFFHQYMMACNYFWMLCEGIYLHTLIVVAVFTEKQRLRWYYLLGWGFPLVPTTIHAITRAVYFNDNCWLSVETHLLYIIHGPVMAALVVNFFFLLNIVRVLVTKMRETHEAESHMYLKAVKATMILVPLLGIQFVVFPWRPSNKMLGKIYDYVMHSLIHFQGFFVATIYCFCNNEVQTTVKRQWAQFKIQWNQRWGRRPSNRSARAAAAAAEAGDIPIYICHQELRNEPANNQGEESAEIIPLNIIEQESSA
Nature of the test: cell-based or functional assay.

In test [2] the target is T2, human amylin receptor (calcitonin receptor co-expressed with receptor activity modifying protein, RAMP3) (human, UniProt P30988 25-474; O60896 24-148).
T2 sequence (looked up) 1: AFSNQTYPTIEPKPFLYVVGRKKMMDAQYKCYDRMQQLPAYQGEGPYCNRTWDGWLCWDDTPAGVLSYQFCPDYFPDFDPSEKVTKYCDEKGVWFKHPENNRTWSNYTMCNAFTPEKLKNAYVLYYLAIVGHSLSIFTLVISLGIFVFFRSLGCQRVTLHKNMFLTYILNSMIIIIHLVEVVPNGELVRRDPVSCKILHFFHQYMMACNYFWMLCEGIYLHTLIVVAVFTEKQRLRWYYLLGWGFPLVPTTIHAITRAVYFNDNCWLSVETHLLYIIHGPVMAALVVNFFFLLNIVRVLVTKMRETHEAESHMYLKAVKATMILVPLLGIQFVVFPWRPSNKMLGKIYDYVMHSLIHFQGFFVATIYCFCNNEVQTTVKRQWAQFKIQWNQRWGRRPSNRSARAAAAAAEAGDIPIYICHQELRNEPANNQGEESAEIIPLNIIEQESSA
T2 sequence (looked up) 2: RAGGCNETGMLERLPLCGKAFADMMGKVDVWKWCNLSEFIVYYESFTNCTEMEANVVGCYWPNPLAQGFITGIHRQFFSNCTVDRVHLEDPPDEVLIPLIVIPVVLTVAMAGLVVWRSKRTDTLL
Nature of the test: cell-based or functional assay.

Numbered stars: 1 amine (or outer) side, 2 acyl side, 3 side chain; on linkers, the order of the positions; unused ones are H or OH. Bridge positions count the residues as written; N and C are the ends. Square brackets hold non-standard residues; d marks the D form. Side chains are listed from the residue outwards. Ends that are not written are not given here. * marks the point of attachment. C18 diacid = O=C(O)CCCCCCCCCCCCCCCCC(=O)*; γGlu = O=C(O)[C@H](CCC(=O)[*:2])N[*:1]; AEEA = NCCOCCOCC(=O)O; Aib = CC(C)(N)C(=O)O

B1: Peptide 7 (SEQ ID NO: 7) (peptide)
peptide: K([AEEA-AEEA-γGlu-C18 diacid])GGGKCNTATCATQRLANFLVHSSNNFGPILPPTNVGSNTY-NH2
modifications: disulfide 6-11
With B1, the “EC50 (cAMP production)” value turned out to be 2.16 nM in test [1] and 0.173 nM in test [2]. The “Ratio (EC50 hCTR / EC50 hAMYR3)” value in test [2] amounted to 12.

B2: Peptide 52 (SEQ ID NO: 52) (peptide)
peptide: K([γGlu-C18 diacid])KCNTATCATQRLANFLSHSS[Aib]NFGPILPPTRVGSNTY-NH2
modifications: disulfide 3-8; N-terminus assumed
SMILES: CC[C@H](C)[C@H](NC(=O)[C@@H]1CCCN1C(=O)CNC(=O)[C@H](Cc1ccccc1)NC(=O)[C@H](CC(N)=O)NC(=O)C(C)(C)NC(=O)[C@H](CO)NC(=O)[C@H](CO)NC(=O)[C@H](Cc1c[nH]cn1)NC(=O)[C@H](CO)NC(=O)[C@H](CC(C)C)NC(=O)[C@H](Cc1ccccc1)NC(=O)[C@H](CC(N)=O)NC(=O)[C@H](C)NC(=O)[C@H](CC(C)C)NC(=O)[C@H](CCCNC(=N)N)NC(=O)[C@H](CCC(N)=O)NC(=O)[C@@H](NC(=O)[C@H](C)NC(=O)[C@@H]1CSSC[C@H](NC(=O)[C@H](CCCCN)NC(=O)[C@@H](N)CCCCNC(=O)CC[C@H](NC(=O)CCCCCCCCCCCCCCCCC(=O)O)C(=O)O)C(=O)N[C@@H](CC(N)=O)C(=O)N[C@@H]([C@@H](C)O)C(=O)N[C@@H](C)C(=O)N[C@@H]([C@@H](C)O)C(=O)N1)[C@@H](C)O)C(=O)N[C@@H](CC(C)C)C(=O)N1CCC[C@H]1C(=O)N1CCC[C@H]1C(=O)N[C@H](C(=O)N[C@@H](CCCNC(=N)N)C(=O)N[C@H](C(=O)NCC(=O)N[C@@H](CO)C(=O)N[C@@H](CC(N)=O)C(=O)N[C@H](C(=O)N[C@@H](Cc1ccc(O)cc1)C(N)=O)[C@@H](C)O)C(C)C)[C@@H](C)O
Consider B2, for which the “EC50 (cAMP production)” value in test [1] amounted to 1.1 nM. Further, in test [2], the “EC50 (cAMP production)” value came out at 0.089 nM and the “Ratio (EC50 hCTR / EC50 hAMYR3)” value was found to be 12.

B3: Peptide 56 (SEQ ID NO: 56) (peptide)
peptide: K([γGlu-C18 diacid])CNTATCATQRLANFLVHSS[Aib]NFGPILPPTNVGSNTY-NH2
modifications: disulfide 2-7; N-terminus assumed
SMILES: CC[C@H](C)[C@H](NC(=O)[C@@H]1CCCN1C(=O)CNC(=O)[C@H](Cc1ccccc1)NC(=O)[C@H](CC(N)=O)NC(=O)C(C)(C)NC(=O)[C@H](CO)NC(=O)[C@H](CO)NC(=O)[C@H](Cc1c[nH]cn1)NC(=O)[C@@H](NC(=O)[C@H](CC(C)C)NC(=O)[C@H](Cc1ccccc1)NC(=O)[C@H](CC(N)=O)NC(=O)[C@H](C)NC(=O)[C@H](CC(C)C)NC(=O)[C@H](CCCNC(=N)N)NC(=O)[C@H](CCC(N)=O)NC(=O)[C@@H](NC(=O)[C@H](C)NC(=O)[C@@H]1CSSC[C@H](NC(=O)[C@@H](N)CCCCNC(=O)CC[C@H](NC(=O)CCCCCCCCCCCCCCCCC(=O)O)C(=O)O)C(=O)N[C@@H](CC(N)=O)C(=O)N[C@@H]([C@@H](C)O)C(=O)N[C@@H](C)C(=O)N[C@@H]([C@@H](C)O)C(=O)N1)[C@@H](C)O)C(C)C)C(=O)N[C@@H](CC(C)C)C(=O)N1CCC[C@H]1C(=O)N1CCC[C@H]1C(=O)N[C@H](C(=O)N[C@@H](CC(N)=O)C(=O)N[C@H](C(=O)NCC(=O)N[C@@H](CO)C(=O)N[C@@H](CC(N)=O)C(=O)N[C@H](C(=O)N[C@@H](Cc1ccc(O)cc1)C(N)=O)[C@@H](C)O)C(C)C)[C@@H](C)O
For B3, the “EC50 (cAMP production)” value came to 0.493 nM in test [1] and 0.07 nM in test [2]. For the same molecule, the “Ratio (EC50 hCTR / EC50 hAMYR3)” value in test [2] was 7.

B4: Peptide 53 (SEQ ID NO: 53) (peptide)
peptide: K([γGlu-C18 diacid])KCNTATCATQRLANFLSHSS[Aib]NFGPILPPTPVGSNTY-NH2
modifications: disulfide 3-8; N-terminus assumed
SMILES: CC[C@H](C)[C@H](NC(=O)[C@@H]1CCCN1C(=O)CNC(=O)[C@H](Cc1ccccc1)NC(=O)[C@H](CC(N)=O)NC(=O)C(C)(C)NC(=O)[C@H](CO)NC(=O)[C@H](CO)NC(=O)[C@H](Cc1c[nH]cn1)NC(=O)[C@H](CO)NC(=O)[C@H](CC(C)C)NC(=O)[C@H](Cc1ccccc1)NC(=O)[C@H](CC(N)=O)NC(=O)[C@H](C)NC(=O)[C@H](CC(C)C)NC(=O)[C@H](CCCNC(=N)N)NC(=O)[C@H](CCC(N)=O)NC(=O)[C@@H](NC(=O)[C@H](C)NC(=O)[C@@H]1CSSC[C@H](NC(=O)[C@H](CCCCN)NC(=O)[C@@H](N)CCCCNC(=O)CC[C@H](NC(=O)CCCCCCCCCCCCCCCCC(=O)O)C(=O)O)C(=O)N[C@@H](CC(N)=O)C(=O)N[C@@H]([C@@H](C)O)C(=O)N[C@@H](C)C(=O)N[C@@H]([C@@H](C)O)C(=O)N1)[C@@H](C)O)C(=O)N[C@@H](CC(C)C)C(=O)N1CCC[C@H]1C(=O)N1CCC[C@H]1C(=O)N[C@H](C(=O)N1CCC[C@H]1C(=O)N[C@H](C(=O)NCC(=O)N[C@@H](CO)C(=O)N[C@@H](CC(N)=O)C(=O)N[C@H](C(=O)N[C@@H](Cc1ccc(O)cc1)C(N)=O)[C@@H](C)O)C(C)C)[C@@H](C)O
Turning to B4, the “EC50 (cAMP production)” value in test [1] is 0.235 nM. In test [2], the “EC50 (cAMP production)” value is 0.098 nM and the “Ratio (EC50 hCTR / EC50 hAMYR3)” value is 2.

B5: Peptide 55 (SEQ ID NO: 55) (peptide)
peptide: K([γGlu-C18 diacid])KCNTATCATQRLANFLSHSS[Aib]NFGPILPPTNVGSPTY-NH2
modifications: disulfide 3-8; N-terminus assumed
SMILES: CC[C@H](C)[C@H](NC(=O)[C@@H]1CCCN1C(=O)CNC(=O)[C@H](Cc1ccccc1)NC(=O)[C@H](CC(N)=O)NC(=O)C(C)(C)NC(=O)[C@H](CO)NC(=O)[C@H](CO)NC(=O)[C@H](Cc1c[nH]cn1)NC(=O)[C@H](CO)NC(=O)[C@H](CC(C)C)NC(=O)[C@H](Cc1ccccc1)NC(=O)[C@H](CC(N)=O)NC(=O)[C@H](C)NC(=O)[C@H](CC(C)C)NC(=O)[C@H](CCCNC(=N)N)NC(=O)[C@H](CCC(N)=O)NC(=O)[C@@H](NC(=O)[C@H](C)NC(=O)[C@@H]1CSSC[C@H](NC(=O)[C@H](CCCCN)NC(=O)[C@@H](N)CCCCNC(=O)CC[C@H](NC(=O)CCCCCCCCCCCCCCCCC(=O)O)C(=O)O)C(=O)N[C@@H](CC(N)=O)C(=O)N[C@@H]([C@@H](C)O)C(=O)N[C@@H](C)C(=O)N[C@@H]([C@@H](C)O)C(=O)N1)[C@@H](C)O)C(=O)N[C@@H](CC(C)C)C(=O)N1CCC[C@H]1C(=O)N1CCC[C@H]1C(=O)N[C@H](C(=O)N[C@@H](CC(N)=O)C(=O)N[C@H](C(=O)NCC(=O)N[C@@H](CO)C(=O)N1CCC[C@H]1C(=O)N[C@H](C(=O)N[C@@H](Cc1ccc(O)cc1)C(N)=O)[C@@H](C)O)C(C)C)[C@@H](C)O
Regarding B5, the “EC50 (cAMP production)” value in test [1] is 1.87 nM. Also, in test [2], the “EC50 (cAMP production)” value was determined as 0.678 nM and the “Ratio (EC50 hCTR / EC50 hAMYR3)” value was determined as 3.

B6: Peptide 54 (SEQ ID NO: 54) (peptide)
peptide: K([γGlu-C18 diacid])KCNTATCATQRLANFLSHSS[Aib]NFGPILPPTNVPSNTY-NH2
modifications: disulfide 3-8; N-terminus assumed
SMILES: CC[C@H](C)[C@H](NC(=O)[C@@H]1CCCN1C(=O)CNC(=O)[C@H](Cc1ccccc1)NC(=O)[C@H](CC(N)=O)NC(=O)C(C)(C)NC(=O)[C@H](CO)NC(=O)[C@H](CO)NC(=O)[C@H](Cc1c[nH]cn1)NC(=O)[C@H](CO)NC(=O)[C@H](CC(C)C)NC(=O)[C@H](Cc1ccccc1)NC(=O)[C@H](CC(N)=O)NC(=O)[C@H](C)NC(=O)[C@H](CC(C)C)NC(=O)[C@H](CCCNC(=N)N)NC(=O)[C@H](CCC(N)=O)NC(=O)[C@@H](NC(=O)[C@H](C)NC(=O)[C@@H]1CSSC[C@H](NC(=O)[C@H](CCCCN)NC(=O)[C@@H](N)CCCCNC(=O)CC[C@H](NC(=O)CCCCCCCCCCCCCCCCC(=O)O)C(=O)O)C(=O)N[C@@H](CC(N)=O)C(=O)N[C@@H]([C@@H](C)O)C(=O)N[C@@H](C)C(=O)N[C@@H]([C@@H](C)O)C(=O)N1)[C@@H](C)O)C(=O)N[C@@H](CC(C)C)C(=O)N1CCC[C@H]1C(=O)N1CCC[C@H]1C(=O)N[C@H](C(=O)N[C@@H](CC(N)=O)C(=O)N[C@H](C(=O)N1CCC[C@H]1C(=O)N[C@@H](CO)C(=O)N[C@@H](CC(N)=O)C(=O)N[C@H](C(=O)N[C@@H](Cc1ccc(O)cc1)C(N)=O)[C@@H](C)O)C(C)C)[C@@H](C)O
Regarding B6, the “EC50 (cAMP production)” value in test [1] is 1.51 nM. In test [2], the “EC50 (cAMP production)” value came out at 7.59 nM and the “Ratio (EC50 hCTR / EC50 hAMYR3)” value was 0.2.

Source of the values: US20220204580A1 (AstraZeneca / MedImmune, published 2022).
